Measured values as given in the supplement of paper PMC10567573.

B1: SETD8 (parent)
chain: FVVEYHGDLIEITDAKKREALYAQ
B2: TRIM35 (parent)
chain: WEVQVSPTCPVCKDRASPADLRTN

Variants of: B1
Assay: protein stability index of a GFP-peptide fusion (GPS, HEK-293T) (PSI 1-6); higher = more stable
Conditions: c terminus: a fixed tail appended
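Further: lentivirally expressed fusions sorted by FACS into six bins by GFP to DsRed ratio, PSI derived from sequencing read proportions per bin multiplied by bin number.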

Row | Variant | protein stability index
1 | FVVEYHGDLIEITDAKKLEALYAQ [R18L] | 1.87
2 | FVVEYHGDLIEITDAKKYEALYAQ [R18Y] | 2.2
3 | FVVIYHGDLIEITDAKKREALYAQ [E4I] | 1.03
4 | FTVEYHGDLIEITDAKKREALYAQ [V2T] | 2.38
5 | FWVEYHGDLIEITDAKKREALYAQ [V2W] | 1.32
6 | FVVEYHGDLGEITDAKKREALYAQ [I10G] | 2.11
7 | FVVEYHGDLIEITDAKKREALYAV [Q24V] | 1.85
8 | FVVEYHGDLIEITDAHKREALYAQ [K16H] | 2.3
9 | FVVEYHGDFIEITDAKKREALYAQ [L9F] | 3.03
10 | FVVEYHGDAIEITDAKKREALYAQ [L9A] | 2.31
11 | FVVEYHGDNIEITDAKKREALYAQ [L9N] | 2.86
12 | FVVEYHGDMIEITDAKKREALYAQ [L9M] | 1.46
13 | FVVEYHGDHIEITDAKKREALYAQ [L9H] | 1.93
14 | FVVEYHGDLIEIADAKKREALYAQ [T13A] | 1.73
15 | FVVEYHGDLIEITDAKKREALQAQ [Y22Q] | 2.06
16 | FVVEYWGDLIEITDAKKREALYAQ [H6W] | 1.35
17 | FVVEYHGDLIEITDAKKREARYAQ [L21R] | 1.39
18 | FVVEYHGDLIEITDAKKREASYAQ [L21S] | 2.36
19 | FVVEYHGDLIEYTDAKKREALYAQ [I12Y] | 1.56
20 | FVVEYHGDLIEWTDAKKREALYAQ [I12W] | 2.45

Row | Variant | protein stability index
21 | FVVEYHGDLIENTDAKKREALYAQ [I12N] | 2.54
22 | FVVEYHGDLIECTDAKKREALYAQ [I12C] | 2.1
23 | FVVEYHGDLIEITDAKKRELLYAQ [A20L] | 1.39
24 | QVVEYHGDLIEITDAKKREALYAQ [F1Q] | 4.63
25 | FVLEYHGDLIEITDAKKREALYAQ [V3L] | 1.98
26 | FVVEYHGDLIEITDAKKRGALYAQ [E19G] | 1.75
27 | FVVEYHGKLIEITDAKKREALYAQ [D8K] | 1.82
28 | FVVENHGDLIEITDAKKREALYAQ [Y5N] | 2.73
29 | FVVELHGDLIEITDAKKREALYAQ [Y5L] | 1.89
30 | FVVEQHGDLIEITDAKKREALYAQ [Y5Q] | 2.93
31 | FVVEWHGDLIEITDAKKREALYAQ [Y5W] | 1.43
32 | FVVEYHGDLIEITVAKKREALYAQ [D14V] | 1.45
33 | FVVEYHGDLIEITHAKKREALYAQ [D14H] | 1.52
34 | FVVEYHGDLIEITCAKKREALYAQ [D14C] | 1.46
35 | FVVEYHGDLIEITQAKKREALYAQ [D14Q] | 2.13
36 | FVVEYHGDLIEITFAKKREALYAQ [D14F] | 2.45
37 | FVVEYHGDLIEITDFKKREALYAQ [A15F] | 2.25
38 | FVVEYHGDLIEITDVKKREALYAQ [A15V] | 2.3
39 | FVVEYHGDLIEITDHKKREALYAQ [A15H] | 1.87

Variants of: B2
Assay: as above
Conditions: c terminus: a fixed tail appended

Row | Variant | protein stability index
40 | WEVQVSPTCPVCKIRASPADLRTN [D14I] | 1.93
41 | WEVQVSPTCPVCKQRASPADLRTN [D14Q] | 2.18
42 | WEVQVSPTCPVCMDRASPADLRTN [K13M] | 1.94
43 | WEVQVSPTCPVCEDRASPADLRTN [K13E] | 2.71
44 | WEVQVSPTCPVCNDRASPADLRTN [K13N] | 2.39
45 | WEVQVSPTCPVCPDRASPADLRTN [K13P] | 3.74
46 | WEVQVSPTCPVCCDRASPADLRTN [K13C] | 1.72
47 | WEVQVSGTCPVCKDRASPADLRTN [P7G] | 3.03
48 | WEVQVSATCPVCKDRASPADLRTN [P7A] | 1.72
49 | WEVQVSDTCPVCKDRASPADLRTN [P7D] | 2.43
50 | WEVQVSITCPVCKDRASPADLRTN [P7I] | 1.97
51 | WEVQVSPTCPVQKDRASPADLRTN [C12Q] | 3.9
52 | WEVQVSPTCPVLKDRASPADLRTN [C12L] | 3.8
53 | WEVQVSPTCPVCKDRASPAILRTN [D20I] | 1.47
54 | WEVQVSPTCPVCKDRASPAYLRTN [D20Y] | 1.18
55 | WEVQVSPTVPVCKDRASPADLRTN [C9V] | 4.11
56 | WEVQVSPTRPVCKDRASPADLRTN [C9R] | 4.04
57 | WEVQVSPTCPVCKDRAPPADLRTN [S17P] | 2.83
58 | WEVQVSPTCPVCKDRHSPADLRTN [A16H] | 2.71
59 | WEVQVSPTCPVCKDRYSPADLRTN [A16Y] | 2.08
60 | WEVQVSPTCPVCKDRKSPADLRTN [A16K] | 2.8
61 | WEVQVSPTCPVCKDRASPADLRMN [T23M] | 2.5
62 | QEVQVSPTCPVCKDRASPADLRTN [W1Q] | 3.1
63 | MEVQVSPTCPVCKDRASPADLRTN [W1M] | 2.75
64 | EEVQVSPTCPVCKDRASPADLRTN [W1E] | 3.52
65 | WEVQVSPTCPVCKDRASPADYRTN [L21Y] | 2.57
66 | WEVQVSPTCPVCKDRASPADMRTN [L21M] | 2.13
67 | WEVQVSPTCPVCKDRASPADKRTN [L21K] | 3.15

Row | Variant | protein stability index
68 | WEVPVSPTCPVCKDRASPADLRTN [Q4P] | 3.58
69 | WEVTVSPTCPVCKDRASPADLRTN [Q4T] | 2.36
70 | WEVAVSPTCPVCKDRASPADLRTN [Q4A] | 1.73
71 | WEVWVSPTCPVCKDRASPADLRTN [Q4W] | 1.48
72 | WEVQVSPTCPVCKDRASPADLQTN [R22Q] | 3.33
73 | WEVQVSPTCPVCKDRASPADLNTN [R22N] | 2.75
74 | WEVQVSPTCPVCKDRASPIDLRTN [A19I] | 2.05
75 | WEVQVSPTCPVCKDRASPWDLRTN [A19W] | 2.3
76 | WEVQVSPTCPVCKDRASPYDLRTN [A19Y] | 1.77
77 | WEVQVSPTCPVCKDRASPTDLRTN [A19T] | 1.75
78 | WEVQVSPTCPVCKDRASPEDLRTN [A19E] | 3.35
79 | WEVQVSPTCPACKDRASPADLRTN [V11A] | 2.37
80 | WEVQVSPTCPLCKDRASPADLRTN [V11L] | 1.9
81 | WEVQVSPTCPTCKDRASPADLRTN [V11T] | 3.14
82 | WEVQVSPQCPVCKDRASPADLRTN [T8Q] | 2.33
83 | WEVQVSPRCPVCKDRASPADLRTN [T8R] | 1.7
84 | WEVQVSPTCKVCKDRASPADLRTN [P10K] | 2.79
85 | WHVQVSPTCPVCKDRASPADLRTN [E2H] | 2.51
86 | WKVQVSPTCPVCKDRASPADLRTN [E2K] | 2.42
87 | WEVQVCPTCPVCKDRASPADLRTN [S6C] | 2.63
88 | WEVQVIPTCPVCKDRASPADLRTN [S6I] | 2.12
89 | WEVQVPPTCPVCKDRASPADLRTN [S6P] | 2.87
90 | WEVQHSPTCPVCKDRASPADLRTN [V5H] | 2.97
91 | WEVQNSPTCPVCKDRASPADLRTN [V5N] | 2.71
92 | WEAQVSPTCPVCKDRASPADLRTN [V3A] | 3.31
93 | WECQVSPTCPVCKDRASPADLRTN [V3C] | 2.11
94 | WEKQVSPTCPVCKDRASPADLRTN [V3K] | 2.83
